Experimental findings from the supplement of paper PMC5998384 are described below.

In series [1] the test system is HeLa Kyoto. In words: solubility change mitosis vs G1/S (difference of NP-40 vs SDS log2 ratios) (log2 ratio difference); higher = more soluble in mitosis.
Series [2] has as its system HeLa Kyoto. As to the kind of experiment: solubility in G1/S (NP-40 vs SDS abundance) (log2 ratio); higher = more soluble. The settings on record: cell cycle stage: G1/S.
For series [3], the system named is HeLa Kyoto. As to the kind of experiment: melting temperature (median over replicates), in situ; higher = more thermally stable.
Series [4] has as its system HeLa Kyoto. As to the kind of experiment: thermal stability score vs G1/S (z-score of summed log2 fold changes over temperatures); higher = more thermally stable than in G1/S.
[5] abbreviates: cell cycle stage: early G1 (4.5 h after nocodazole release).
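Throughout, for melting temperature (median over replicates), in situ: HeLa Kyoto cells synchronized by double thymidine or nocodazole block, proteins quantified by TMT10plex mass spectrometry, three independent biological replicates.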
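Throughout, for solubility change mitosis vs G1/S (difference of NP-40 vs SDS log2 ratios): synchronized HeLa Kyoto cells (double thymidine block for G1/S, nocodazole release for mitosis), protein amounts in NP-40 versus SDS lysates quantified by mass spectrometry, three biological replicates.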
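Throughout, for solubility in G1/S (NP-40 vs SDS abundance): HeLa Kyoto cells arrested at G1/S by double thymidine block, proteins quantified by TMT10plex mass spectrometry in mild NP-40 versus SDS extracts, three biological replicates.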
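Throughout, for thermal stability score vs G1/S (z-score of summed log2 fold changes over temperatures): synchronized HeLa Kyoto cells, proteins quantified by TMT10plex mass spectrometry, three biological replicates, mitosis taken 0.5 h after nocodazole release, G1/S directly after double thymidine block.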

Turning to “MAKGDPKKPKGKMSAYAFFVQTCREEHKKKNPEVPVNFAEFSKKCSERWKTMSGKEKSKFDEMAKADKVRYDREMKDYGPAKGGKKKKDPNAPKRPPSGFFLFCSEFRPKIKSTNPGISIGDVAKKLGEMWNNLNDSEKQPYITKAAKLKEKYEKDVADYKSKGKFDGAKGPAKVARKKVEEEDEEEEEEEEEEEEEEDE [HMGB3]”, in the series on HeLa Kyoto [1], the “solubility change mitosis (log2)” value worked out at 0.349. Further, the “solubility in G1/S (log2)” value with HeLa Kyoto [2] is 0.667. Besides, the melting temperature with HeLa Kyoto [3] (cell cycle stage: G1/S) amounted to 57 °C; in the series with HeLa Kyoto [3] (cell cycle stage: mitosis), 57.3 °C. For the same sequence, the thermal stability score in the series with HeLa Kyoto [4] (setting [5]) stood at 1.34; in the series on HeLa Kyoto [4] (cell cycle stage: mitosis) it was 0.604.

Consider “MAKIAKTHEDIEAQIREIQGKKAALDEAQGVGLDSTGYYDQEIYGGSDSRFAGYVTSIAATELEDDDDDYSSSTSLLGQKKPGYHAPVALLNDIPQSTEQYDPFAEHRPPKIADREDEYKKHRRTMIISPERLDPFADGGKTPDPKMNARTYMDVMREQHLTKEEREIRQQLAEKAKAGELKVVNGAAASQPPSKRKRRWDQTADQTPGATPKKLSSWDQAETPGHTPSLRWDETPGRAKGSETPGATPGSKIWDPTPSHTPAGAATPGRGDTPGHATPGHGGATSSARKNRWDETPKTERDTPGHGSGWAETPRTDRGGDSIGETPTPGASKRKSRWDETPASQMGGSTPVLTPGKTPIGTPAMNMATPTPGHIMSMTPEQLQAWRWEREIDERNRPLSDEELDAMFPEGYKVLPPPAGYVPIRTPARKLTATPTPLGGMTGFHMQTEDRTMKSVNDQPSGNLPFLKPDDIQYFDKLLVDVDESTLSPEEQKERKIMKLLLKIKNGTPPMRKAALRQITDKAREFGAGPLFNQILPLLMSPTLEDQERHLLVKVIDRILYKLDDLVRPYVHKILVVIEPLLIDEDYYARVEGREIISNLAKAAGLATMISTMRPDIDNMDEYVRNTTARAFAVVASALGIPSLLPFLKAVCKSKKSWQARHTGIKIVQQIAILMGCAILPHLRSLVEIIEHGLVDEQQKVRTISALAIAALAEAATPYGIESFDSVLKPLWKGIRQHRGKGLAAFLKAIGYLIPLMDAEYANYYTREVMLILIREFQSPDEEMKKIVLKVVKQCCGTDGVEANYIKTEILPPFFKHFWQHRMALDRRNYRQLVDTTVELANKVGAAEIISRIVDDLKDEAEQYRKMVMETIEKIMGNLGAADIDHKLEEQLIDGILYAFQEQTTEDSVMLNGFGTVVNALGKRVKPYLPQICGTVLWRLNNKSAKVRQQAADLISRTAVVMKTCQEEKLMGHLGVVLYEYLGEEYPEVLGSILGALKAIVNVIGMHKMTPPIKDLLPRLTPILKNRHEKVQENCIDLVGRIADRGAEYVSAREWMRICFELLELLKAHKKAIRRATVNTFGYIAKAIGPHDVLATLLNNLKVQERQNRVCTTVAIAIVAETCSPFTVLPALMNEYRVPELNVQNGVLKSLSFLFEYIGEMGKDYIYAVTPLLEDALMDRDLVHRQTASAVVQHMSLGVYGFGCEDSLNHLLNYVWPNVFETSPHVIQAVMGALEGLRVAIGPCRMLQYCLQGLFHPARKVRDVYWKIYNSIYIGSQDALIAHYPRIYNDDKNTYIRYELDYIL [SF3B1]”, for which, in the series on HeLa Kyoto [1], the “solubility change mitosis (log2)” value was 0.299. Moreover, the “solubility in G1/S (log2)” value with HeLa Kyoto [2] was -0.486. Moreover, the melting temperature was found to be 50.9 °C with HeLa Kyoto [3] (cell cycle stage: G1/S) and 50.4 °C in the series on HeLa Kyoto [3] (cell cycle stage: mitosis). Besides, the thermal stability score in the series with HeLa Kyoto [4] (setting [5]) was -1.78; with HeLa Kyoto [4] (cell cycle stage: mitosis), -0.315.

With “MAKRSRGPGRRCLLALVLFCAWGTLAVVAQKPGAGCPSRCLCFRTTVRCMHLLLEAVPAVAPQTSILDLRFNRIREIQPGAFRRLRNLNTLLLNNNQIKRIPSGAFEDLENLKYLYLYKNEIQSIDRQAFKGLASLEQLYLHFNQIETLDPDSFQHLPKLERLFLHNNRITHLVPGTFNHLESMKRLRLDSNTLHCDCEILWLADLLKTYAESGNAQAAAICEYPRRIQGRSVATITPEELNCERPRITSEPQDADVTSGNTVYFTCRAEGNPKPEIIWLRNNNELSMKTDSRLNLLDDGTLMIQNTQETDQGIYQCMAKNVAGEVKTQEVTLRYFGSPARPTFVIQPQNTEVLVGESVTLECSATGHPPPRISWTRGDRTPLPVDPRVNITPSGGLYIQNVVQGDSGEYACSATNNIDSVHATAFIIVQALPQFTVTPQDRVVIEGQTVDFQCEAKGNPPPVIAWTKGGSQLSVDRRHLVLSSGTLRISGVALHDQGQYECQAVNIIGSQKVVAHLTVQPRVTPVFASIPSDTTVEVGANVQLPCSSQGEPEPAITWNKDGVQVTESGKFHISPEGFLTINDVGPADAGRYECVARNTIGSASVSMVLSVNVPDVSRNGDPFVATSIVEAIATVDRAINSTRTHLFDSRPRSPNDLLALFRYPRDPYTVEQARAGEIFERTLQLIQEHVQHGLMVDLNGTSYHYNDLVSPQYLNLIANLSGCTAHRRVNNCSDMCFHQKYRTHDGTCNNLQHPMWGASLTAFERLLKSVYENGFNTPRGINPHRLYNGHALPMPRLVSTTLIGTETVTPDEQFTHMLMQWGQFLDHDLDSTVVALSQARFSDGQHCSNVCSNDPPCFSVMIPPNDSRARSGARCMFFVRSSPVCGSGMTSLLMNSVYPREQINQLTSYIDASNVYGSTEHEARSIRDLASHRGLLRQGIVQRSGKPLLPFATGPPTECMRDENESPIPCFLAGDHRANEQLGLTSMHTLWFREHNRIATELLKLNPHWDGDTIYYETRKIVGAEIQHITYQHWLPKILGEVGMRTLGEYHGYDPGINAGIFNAFATAAFRFGHTLVNPLLYRLDENFQPIAQDHLPLHKAFFSPFRIVNEGGIDPLLRGLFGVAGKMRVPSQLLNTELTERLFSMAHTVALDLAAINIQRGRDHGIPPYHDYRVYCNLSAAHTFEDLKNEIKNPEIREKLKRLYGSTLNIDLFPALVVEDLVPGSRLGPTLMCLLSTQFKRLRDGDRLWYENPGVFSPAQLTQIKQTSLARILCDNADNITRVQSDVFRVAEFPHGYGSCDEIPRVDLRVWQDCCEDCRTRGQFNAFSYHFRGRRSLEFSYQEDKPTKKTRPRKIPSVGRQGEHLSNSTSAFSTRSDASGTNDFREFVLEMQKTITDLRTQIKKLESRLSTTECVDAGGESHANNTKWKKDACTICECKDGQVTCFVEACPPATCAVPVNIPGACCPVCLQKRAEEKP [PXDN]”, the “solubility change mitosis (log2)” value in the series on HeLa Kyoto [1] was -0.103. Further, the “solubility in G1/S (log2)” value with HeLa Kyoto [2] was -0.0223. The melting temperature with HeLa Kyoto [3] (cell cycle stage: G1/S) was determined as 54 °C; in the series on HeLa Kyoto [3] (cell cycle stage: mitosis) it was 54.5 °C. For the same sequence, the thermal stability score turned out to be 3.4 in the series with HeLa Kyoto [4] (setting [5]) and 3.61 in the series with HeLa Kyoto [4] (cell cycle stage: mitosis).

“MAKTVAYFYDPDVGNFHYGAGHPMKPHRLALTHSLVLHYGLYKKMIVFKPYQASQHDMCRFHSEDYIDFLQRVSPTNMQGFTKSLNAFNVGDDCPVFPGLFEFCSRYTGASLQGATQLNNKICDIAINWAGGLHHAKKFEASGFCYVNDIVIGILELLKYHPRVLYIDIDIHHGDGVQEAFYLTDRVMTVSFHKYGNYFFPGTGDMYEVGAESGRYYCLNVPLRDGIDDQSYKHLFQPVINQVVDFYQPTCIVLQCGADSLGCDRLGCFNLSIRGHGECVEYVKSFNIPLLVLGGGGYTVRNVARCWTYETSLLVEEAISEELPYSEYFEYFAPDFTLHPDVSTRIENQNSRQYLDQIRQTIFENLKMLNHAPSVQIHDVPADLLTYDRTDEADAEERGPEENYSRPEAPNEFYDGDHDNDKESDVEI [HDAC3]”: the “solubility change mitosis (log2)” value in the series with HeLa Kyoto [1] is -0.161. For the same sequence, in the series on HeLa Kyoto [2], the “solubility in G1/S (log2)” value was -0.055. Besides, the melting temperature in the series on HeLa Kyoto [3] (cell cycle stage: mitosis) came to 52.6 °C. The thermal stability score in the series on HeLa Kyoto [4] (setting [5]) is 1.43; in the series on HeLa Kyoto [4] (cell cycle stage: mitosis), 1.96.
